Data on 41 sequences can be found in the nanobody polyreactivity screen of Harvey et al. (2022).

This series is described as follows: yeast display, Sf9 membrane polyspecificity reagent, FACS + sequencing; frameworks hold sequencing errors. In short, it runs like this: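 Using colony PCR, genes from sorted yeast display clones were amplified, then sequenced on MiSeq at 2 × 250 and filtered by CDR length. The clones had been stained with 10% biotinylated, detergent-solubilized Sf9 membrane reagent for 1 hour at 4 °C and sorted by FACS into low and high (top ~1%) gates on anti-HA and streptavidin fluorescence. Polyreactivity labels come from the gate of origin.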
For the sequence “QVQLVESGGGLVQAGGSLRLSCAASGRTFWYYAMGWYRPAPGKERELVASISLSGSRTNYADSVKGRFTIARDNAKNTVYLQINRLKPEDTAVYYCAADNFRQFGEYDYLGQGTQVTVSS”, the “polyreactivity (PSR sort gate)” value is listed as “low polyreactivity”.

Consider “QVQLVESGGGLVQAGGSLRLSCAASGRTFWYYAMGWYRQAPGKEREFVAAISWSGGSTYYADSVKGRFTISRDNAKNTVYFQMNSLKPEDTAVYYCNAGNYRDKSYYWGQGTQVTVSS”, for which the “polyreactivity (PSR sort gate)” value is on record as “low polyreactivity”. For “QVQLVESGGGLVQAGGSLRLSCAASGRTFWYYAMGWYRQAPGKERELVAAISRNGGSTYYEDSVKGRFTISRDNAKNTVYLQMNSLKPEDTAVYYCAADGWYTRKYDYWGQGTQVTVSS” the value was “high polyreactivity”. For “QVQLVESGGGLVQAGGSLRLSCAASGRTFWYYAMGWYRQAPGKERELVAAISTTGSSTYYADSVKGRFTISRDNAKNTVYLQMNSLKPEDTAVYYCAADSGAQYKYLWGYDYWGQGTQVTVSS” the value was “low polyreactivity”.

On to “QVQLVESGGGLVQAGGSLRLSCAASGRTFWYYAMGWYRQAPGKERELVAAITYRGTRTYADSVKGRFTISRDNAKNTVYLQMNSQKPEDTPVYYCAKDVGYRYSRTMDYWGQGTQVTVSS”, for which the “polyreactivity (PSR sort gate)” value is on record as “high polyreactivity”.

As for “QVQLVESGGGLVQAGGSLRLSCAASGRTFWYYAMGWYRQAPGKERELVAGITYGDGSTYYADSVKGRFTISRDNAKNTEYLQMNSLKPEDTAVYYCAVDLRSYWFRYGFDYWGQGTQVTVSS”, the “polyreactivity (PSR sort gate)” value is reported as “low polyreactivity”. On to “QVQLVESGGGLVQAGGSLRLSCAASGRTFWYYDMGWYRQAPGKERELVATINNVGSTHYADSVKGRFTISRDNAKNTVYLQMNSLKPEDTAVYYCARASYGKMDYWGQGTQVTVSS”, for which the “polyreactivity (PSR sort gate)” value is “high polyreactivity”. For “QVQLVESGGGLVQAGGSLRLSCAASGRTFWYYTMGWYIQAPGKERELVASITYRGGSTYYADSVKGRFTISRDNAKNTVYLQMNSLKPEDTAVYYCNARYKRYSYDYWGQGTQVTVSS” the value was “high polyreactivity”. Take “QVQLVESGGGLVQAGGSLRLSCAASGRTFWYYTMGWYRQAPGKERELVAAISSGGRTNYADSVKGRFTISRDNAKNTVYLQMNSLKPEDTAVYYCATSRYYKYVERDYWGQGTQVTVSS”: the “polyreactivity (PSR sort gate)” value is on record as “high polyreactivity”. The same measure for “QVQLVESGGGLVQAGGSLRLSCAASGRTFWYYTMGWYRQAPGKERELVASITYRGGSTYYADSVKGRFTISRDNAKNTVYLQMNSLKPEDTAVYFCNARYKRYSYDYWGHGTQVTVSS”: “high polyreactivity”; for “QVQLVESGGGLVQAGGSLRLSCAASGRTFYANAMGWYRQAPGKERELVAAISTGGDGTYYADSVKGRFTISRDNAKKTVYLQMNSLKPEDTAVYYCAVRHRASGILYDYWGQGTQVTVSS”: “low polyreactivity”; for “QVQLVESGGGLVQAGGSLRLSCAASGRTFYANAMGWYRQAPGKERELVAAISWGGGSTYYADSVKGRFTISRDNAKNTVYLQMNSLKPEDTAVYYCNADLGRATFYQRVFIERGGYWGQGTQVTVSS”: “low polyreactivity”. For “QVQLVESGGGLVQAGGSLRLSCAASGRTFYANAMGWYRQAPGKERELVAAITYRGGSTNYADSVKGRFTISRDNAKNTVYLQMNSLKPEDTAVYYCAKVYNPNYLWYLTYGYDYWGQGTQVTVSS” the value was “low polyreactivity”; for “QVQLVESGGGLVQAGGSLRLSCAASGRTFYANVMGWYRQAPGKERELVAAITSGGSSYYADSVKGRFTISRDTAKNTVYLQMNSLKPDDTAVYYCAAGSNLNGVWFDYWGQGTQVTVSS”, “low polyreactivity”. As to “QVQLVESGGGLVQAGGSLRLSCAASGRTFYDYAMGWYRQAPGKERELVAAITSGGSTNYADSVKGRFTISRDNAKNTVYLQMNSLKPEDTAGYYCAADDFYVWGFDMNYWGQGTQVTVSS”, the “polyreactivity (PSR sort gate)” value is “high polyreactivity”. Turning to “QVQLVESGGGLVQAGGSLRLSCAASGRTFYDYDMGWYRKAPGKERELVAAISGGDSTYYADSVKGRFTISRDNAKNTVFLQMNSLKPEDTAVYYCAVTPRGLPYGAYLLYYWGQGTQVTVSS”, the “polyreactivity (PSR sort gate)” value is “low polyreactivity”.

As to “QVQLVESGGGLVQAGGSLRLSCAASGRTFYEYAKGWYRQAPGKERELVAGITSGGSTNYADSVKGRFTISRDNEKNTVYLQMNSLKPEDTAVYYCAASYWGYEYDYWGQGTQVTVSS”, the “polyreactivity (PSR sort gate)” value is “low polyreactivity”. The same measure for “QVQLVESGGGLVQAGGSLRLSCAASGRTFYEYAMGCYIPAPGKERELVAAITSGGTTYYADSVKGRFTISRDTAKNTVYLQMNSVKPEDTAVYYCAADRYYYYWGQGTQVTVSS”: “high polyreactivity”; for “QVQLVESGGGLVQAGGSLRLSCAASGRTFYFNAMGWYRQAPGKERELVAAISGGGRTYYADSVKGRFTISRDNAKNTVYLQMNSLKPEDTAVYYCNVRRWYTYPLEKSNYWGQGTQVTVSS”: “high polyreactivity”.

With “QVQLVESGGGLVQAGGSLRLSCAASGRTFYFYAMGWYRQAPGKERELVAAITSRVGRTYYADSVKGRFTISRDNAKNTVYLQMNSLKPEDTAVYYCAAEGVYRMGYWGQGTQVTVSS”, the “polyreactivity (PSR sort gate)” value is “high polyreactivity”.

On to “QVQLVESGGGLVQAGGSLRLSCAASGRTFYFYAMGWYRQAPGKERELVASITSSGGNTYYADSVKGRFTISRDNAKNTVYLQMNSLKPEDTAVYYCAARWFPWLQWKRYDYWGQGTQVTVSS”, for which the “polyreactivity (PSR sort gate)” value was “low polyreactivity”. For “QVQLVESGGGLVQAGGSLRLSCAASGRTFYFYVMGWYRQAPGKERELVARISWSGGSTYYADSVKGRFTISRDNAKNTVYLQMNSLKPEDTAVYYCARQYKYPSSGEYDSWGQGTQVTVSS” the value was “low polyreactivity”.

In the case of “QVQLVESGGGLVQAGGSLRLSCAASGRTFYGNAMGWYRQAPGKERELVAAITFRTSSTYYADSVKGRFTISRDYAKNTVYLQMNSLKPDDTAVFYCAALWIYSGWRYDYWGQGTQVTVSS”, the “polyreactivity (PSR sort gate)” value is recorded as “high polyreactivity”. For “QVQLVESGGGLVQAGGSLRLSCAASGRTFYGNAMGWYRQAPGKERELVAGITRGGSTYYADSVKGRFTISRDNAKITVYLQMNSLKPEDTAVYYCAARAYYARFLMGYWGQVTQVTVSS” the value was “high polyreactivity”; for “QVQLVESGGGLVQAGGSLRLSCAASGRTFYGYALGWYRQAPGKERELVAAISDDASTYYADSVKGRFTISRDNAKNTVYLQMNSLKPEDTAVYYCAAEPEWPYGRFDYWGQGTQVTVSS”, “high polyreactivity”; for “QVQLVESGGGLVQAGGSLRLSCAASGRTFYGYAMGWSRQAPGKERELVAAISWTGGRTYYADSVKGRFTISRDNAKNTVFLQMNSLKPEDTAVYYCNARRRGDSGDGYIYGYWGQGTQVTVSS”, “high polyreactivity”. Take “QVQLVESGGGLVQAGGSLRLSCAASGRTFYGYAMGWYRQAPGKERELVAAISRRGGSTNYADSVKGRFTISRDNAKNSVYLQMNSLKPEDSAVYYCNANYYRTHYDYWGQGTQVTVSS”: the “polyreactivity (PSR sort gate)” value is “high polyreactivity”. For “QVQLVESGGGLVQAGGSLRLSCAASGRTFYGYAMGWYRQAPGKERELVAAITRSGGSTYYADSVKGRFTISRDNAKNTVYLQMNSLKPEDTAVYYCAAGGQARHDNWGQGTQVTVSS” the value was “low polyreactivity”; for “QVQLVESGGGLVQAGGSLRLSCAASGRTFYGYAMGWYRQAPGKERELVASIRQSAGRTYYADSVKGRFTISRDNAKNTVYLQMNSLKPEDTAVYYCAASIFLRSFYQQGNYWGQGTQVTVSS”, “high polyreactivity”; for “QVQLVESGGGLVQAGGSLRLSCAASGRTFYGYTMGWYRQAPGKERELVAAIRTSGGSTYADSVKGRFTISRDNAKNTVYLQMNSLKPEDTAVYYCAAPRVVYYGTAPAYRYDYWGQGTQVTVSS”, “high polyreactivity”. For “QVQLVESGGGLVQAGGSLRLSCAASGRTFYHYAMGWYRQAPGKERELVATITSSGGNTYYADSVKGRFTISRDNSKNTVYLQMNSLKPEDTEVYYCAADWFVYQYSFGSSEYYYWGQGTQVTVSS” the value was “low polyreactivity”; for “QVQLVESGGGLVQAGGSLRLSCAASGRTFYIYAMGWYRQAPGKERELVAAITWSGGSSTYYADSVKGRFTISRDNAKNTVYLQMNSLKPEDTAVYYCAAETHYYWYEQYDYWGQGTQVTVSS”, “high polyreactivity”; for “QVQLVESGGGLVQAGGSLRLSCAASGRTFYIYTMGWYRQAPGKERELVAAISGRGGRTYYADSVKGSFTISRDNAKNTVYLQMNSLKPEDTAVYYCARGGRVRYDYWGQGTQVTVSS”, “low polyreactivity”. Consider “QVQLVESGGGLVQAGGSLRLSCAASGRTFYKNAMGWYRQAPGKERELVAAISQRGGGTYYADSVKGRFTISRDNAKNTVYLQMNSLKPEDTAVYYCNAPLVFIHGSDYWGQGTQVTVSS”, for which the “polyreactivity (PSR sort gate)” value is “high polyreactivity”. “QVQLVESGGGLVQAGGSLRLSCAASGRTFYKNAMGWYRQAPGKERELVAAISYGGGSTYYADSVKGRFTISRDNAKNTVYLQMISLKPEDTAVYYCATQLPFRKPWHDYWGQGTQVTVSS”: the “polyreactivity (PSR sort gate)” value is recorded as “high polyreactivity”. Turning to “QVQLVESGGGLVQAGGSLRLSCAASGRTFYKNAMGWYRQAPGKERELVARISRGGSTNYADSVKGRFTISRDNAKNTVYLQMYSVKPEESAVYYCATEYGTHGKTYDYWGQGSQVTVSS”, the “polyreactivity (PSR sort gate)” value is recorded as “high polyreactivity”. For “QVQLVESGGGLVQAGGSLRLSCAASGRTFYKNTMGWYRQAPGKERELVATISQRGGSTYYADSVKGRFTISRDNAKNTVYLQMNSLKPEDTAVYYCNARRTSYTSQGYDYWGQGTQVTVSS” the value was “high polyreactivity”; for “QVQLVESGGGLVQAGGSLRLSCAASGRTFYKYAMGWYRQAPGKERELVAAISSRGGRTYYADSVKGRFTISRDNATNTVYLQMNSLKPEDTAVYYCAAKGRPDGKYDYWGQGTQVTVSS”, “high polyreactivity”. Take “QVQLVESGGGLVQAGGSLRLSCAASGRTFYKYGMGWYRQAPGKERELVARINSNGGSTYYADSVKGRFTISRDNAKNTVYLQMNSLKPADTAVYYCARSYVRSYGYYYWGQGPQVTVSS”: the “polyreactivity (PSR sort gate)” value is given as “low polyreactivity”.

For the sequence “QVQLVESGGGLVQAGGSLRLSCAASGRTFYKYGMGWYRQAPGKERELVASISSGGNTYYADSVKGRFTISRDNAKNTVYLQMNSLKPEDTAVYYCNAGYWAKFDYWGQGTQVTVSS”, the “polyreactivity (PSR sort gate)” value is on record as “high polyreactivity”. For “QVQLVESGGGLVQAGGSLRLSCAASGRTFYKYGMVLYRKAPGKERELVAAIRWSGGSTYYADSVKGRFTISRDNAKYTVYFQMNSLKPEDTAVYYCATRSGFGYGYWGQGTQVNVSS” the value was “high polyreactivity”.
